Experimental data as given in the supplement of paper PMC12764529.
± gives the half width of the 95% confidence interval.

Assays:
[1] = folding stability dG unfold (combined trypsin and chymotrypsin); higher = more stable
How it was run: (§1)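 Bayesian fitting of sequencing counts gave K50 for each design. Unfolding free energy followed by setting this against a sequence-predicted unfolded-state K50 and a shared folded-state K50, either per protease or with trypsin and chymotrypsin combined. The designs, under 80 residues and lacking cysteine, were digested in a PA-tagged cDNA display format at 11 threefold-diluted protease concentrations and without protease, and only those with AlphaFold2 dimer inter-PAE above 15 were kept.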

[2] = folding stability dG unfold from chymotrypsin proteolysis; higher = more stable
How it was run: as §1

[3] = folding stability dG unfold from trypsin proteolysis; higher = more stable
How it was run: as §1

Sequence	folding stability dG unfold [1]	folding stability dG unfold [2]	folding stability dG unfold [3]
SAGSITTTDGNISRSVTYIPGLNLYLVTSTYPTSVSVDLVTEEGGTLTTTPVSTTPLPLPASSLSTTASAGG [r19_328_JUSTAS]	0.0781 ± 0.091 kcal/mol	-0.16 ± 0.15 kcal/mol	0.207 ± 0.059 kcal/mol
SAGGSAGGSAGMFVERTLEITFVRPPNGPGPEEVEKRAKELQEKNPHLNVKVKVVDPSEASAGGSAGGSAGG [r17_220_JUSTAS]	0.699 ± 0.26 kcal/mol	0.795 ± 0.1 kcal/mol	0.669 ± 0.086 kcal/mol
MEPPPVVVLEIEIEVPAEDEELRNMTAEELAARLAEELEALPGLKVVSVEVVEVEERPDGTLRVRIRVTIES [r1_484_TrROS_Hall]	3.57 ± 0.79 kcal/mol	2.32 ± 0.14 kcal/mol	3.69 ± 0.47 kcal/mol
GLTVTLDGNSLTVTADAGDKTVTVTAPVFHPEKGLVTVVTVTATREDGALVLHTESRTIRLPPLPPLHPDLS [r1_100_TrMRF]	3.59 ± 0.43 kcal/mol	4.18 ± 0.57 kcal/mol	2.21 ± 0.29 kcal/mol
SAGGSMVVTVSTDSTSEPTTVITITIPPELGNLTDEEKKAIAEEIAKKYPNTKFTFTPTTITITRKSAGGSA [r2_256_JUSTAS]	2.37 ± 0.23 kcal/mol	2.81 ± 0.054 kcal/mol	1.77 ± 0.047 kcal/mol
SAGGSAGGSKSKKYIEIDFSNLTEIKFNPNTNYATAIFKDKGKIYIAKIHFLPNGKAIAEVFDSAGGSAGGS [r12_839_TrMRF]	2.68 ± 0.077 kcal/mol	2.931 ± 0.025 kcal/mol	1.67 ± 0.054 kcal/mol
SAGGMEKAIKEIKEAAKKGEEAVIVLPKNVDPSELISAIEKETGAKVEPLEVKPLPNGELVIKIKVKSAGGS [r16_318_TrMRF]	1.89 ± 0.12 kcal/mol	2.23 ± 0.16 kcal/mol	1.44 ± 0.1 kcal/mol
SAGGMMTPVSEETLPDGSKVLVEENPATGERTVTTLNPATGTVTTETLKRVPGENAWTLLSKTTTPAPSAGG [r19_249_JUSTAS]	1.94 ± 0.041 kcal/mol	1.83 ± 0.02 kcal/mol	2.033 ± 0.018 kcal/mol
SMLKPGDIVKLPNGPIYVVKKLTISYDPSTSPPKLELELVPLGEPKPVLKEYTLPDGSTKTEIGYYWTGPSA [r9_914_TrMRF]	0.98 ± 0.12 kcal/mol	0.995 ± 0.11 kcal/mol	0.922 ± 0.031 kcal/mol
SAGGSAGGSAMKTFTKTFSSPEEAERAAEEIKEKLEKEGKKVKITFEKPETDTYIVTITIESAGGSAGGSAG [r3_211_JUSTAS]	3.82 ± 0.19 kcal/mol	3.93 ± 0.12 kcal/mol	3.44 ± 0.16 kcal/mol
SAGGSAGGSAGGMPPFVELEFVGEFKVNGEKVLVLRLPDGSIRIVNLKTGETITVPASLLSAGGSAGGSAGG [r7_28_JUSTAS]	2.57 ± 0.067 kcal/mol	2.67 ± 0.038 kcal/mol	2.33 ± 0.048 kcal/mol
SAGGSAGGSAGLLPIEELLKKNPEPVTFMVKDNDTLYRIEITPKDGKWTIEIEPLPGMKPSAGGSAGGSAGG [r11_549_TrROS]	1.2 ± 0.043 kcal/mol	1.49 ± 0.077 kcal/mol	0.756 ± 0.021 kcal/mol
SAGGSAGGMRLVVEDFDEEEMEEVERRVREFAEEHDVEVDIYRRRRPDGRVVLVVEIRPKEDLPSAGGSAGG [r6_906_TrMRF]	2.95 ± 0.052 kcal/mol	3.02 ± 0.034 kcal/mol	2.87 ± 0.058 kcal/mol
SAGGSAGGSAGGAPLVEVEEVETRRVKDPATKRWYRRTRVRVRNKETGEWYELEFVEPLSAGGSAGGSAGGS [r10_535_TrROS_Hall]	2.54 ± 0.048 kcal/mol	2.599 ± 0.02 kcal/mol	2.49 ± 0.025 kcal/mol
SAGGSAGGSAGMVTVGDTEVVIEKDPNSDKYTVTVTPADGTTETLTFDSEEEVERYIEAKSAGGSAGGSAGG [r11_238_JUSTAS]	1.61 ± 0.052 kcal/mol	1.7 ± 0.035 kcal/mol	1.49 ± 0.051 kcal/mol
SAGGSAGGSAGGSKKKKIIIVVPKEELSEEQIKALKDLGYEIEIVEVEKKPVKVKKKKKSAGGSAGGSAGGS [r4_294_TrROS_Hall]	1.53 ± 0.22 kcal/mol	2.08 ± 0.12 kcal/mol	0.62 ± 0.068 kcal/mol
SAMTVVIPPNLTALTEDGRPIHPDQVVEVYEAEAFPELGRVVARVKVFDPVSGEETEERLVLFFPDGAESAG [r14_258_TrMRF]	1.53 ± 0.036 kcal/mol	1.66 ± 0.021 kcal/mol	1.26 ± 0.033 kcal/mol
SSMSMKTITIDATFTSEEEAKKYAEEIKKKIPPENIKNISISSTPELVTGDGTYKGEKIKVTITIEIVKKSA [r9_605_JUSTAS]	1.71 ± 0.26 kcal/mol	1.74 ± 0.2 kcal/mol	1.64 ± 0.17 kcal/mol
SAGGSGPLLERALEEIREALAKAKEGEEVEIEVKVTVTGPDGRTREFTFRIRFVVKDGKIVKVEIESAGGSA [r2_173_TrROS_Hall]	4.66 ± 0.14 kcal/mol	4.94 ± 0.085 kcal/mol	3.74 ± 0.22 kcal/mol
SAGGSAGGSAKPLKKLVLLLKVKGPFEEVEKILNEEFGVKKIVAFKDPETDEVYALIYLGDPSAGGSAGGSA [r18_275_TrMRF]	2.62 ± 0.085 kcal/mol	2.86 ± 0.04 kcal/mol	2.23 ± 0.052 kcal/mol
SAGKKKKIKIKVTIVVPVKTKEDVELMKELAEKFAPELGKETAKKLGLPPEVEEIEVDVNILIVSPEELSAG [r5_436_TrMRF]	1.88 ± 0.2 kcal/mol	1.89 ± 0.13 kcal/mol	1.48 ± 0.14 kcal/mol
